Target: T1, endogenous Vps11 (HOPS subunit) (rat, UniProt D3ZTB4 2-941)
T1 construct: whole, on cells; Endogenous protein detected in situ with an anti-Vps11 antibody; also called vacuolar protein sorting-associated protein 11 homolog
T1 sequence: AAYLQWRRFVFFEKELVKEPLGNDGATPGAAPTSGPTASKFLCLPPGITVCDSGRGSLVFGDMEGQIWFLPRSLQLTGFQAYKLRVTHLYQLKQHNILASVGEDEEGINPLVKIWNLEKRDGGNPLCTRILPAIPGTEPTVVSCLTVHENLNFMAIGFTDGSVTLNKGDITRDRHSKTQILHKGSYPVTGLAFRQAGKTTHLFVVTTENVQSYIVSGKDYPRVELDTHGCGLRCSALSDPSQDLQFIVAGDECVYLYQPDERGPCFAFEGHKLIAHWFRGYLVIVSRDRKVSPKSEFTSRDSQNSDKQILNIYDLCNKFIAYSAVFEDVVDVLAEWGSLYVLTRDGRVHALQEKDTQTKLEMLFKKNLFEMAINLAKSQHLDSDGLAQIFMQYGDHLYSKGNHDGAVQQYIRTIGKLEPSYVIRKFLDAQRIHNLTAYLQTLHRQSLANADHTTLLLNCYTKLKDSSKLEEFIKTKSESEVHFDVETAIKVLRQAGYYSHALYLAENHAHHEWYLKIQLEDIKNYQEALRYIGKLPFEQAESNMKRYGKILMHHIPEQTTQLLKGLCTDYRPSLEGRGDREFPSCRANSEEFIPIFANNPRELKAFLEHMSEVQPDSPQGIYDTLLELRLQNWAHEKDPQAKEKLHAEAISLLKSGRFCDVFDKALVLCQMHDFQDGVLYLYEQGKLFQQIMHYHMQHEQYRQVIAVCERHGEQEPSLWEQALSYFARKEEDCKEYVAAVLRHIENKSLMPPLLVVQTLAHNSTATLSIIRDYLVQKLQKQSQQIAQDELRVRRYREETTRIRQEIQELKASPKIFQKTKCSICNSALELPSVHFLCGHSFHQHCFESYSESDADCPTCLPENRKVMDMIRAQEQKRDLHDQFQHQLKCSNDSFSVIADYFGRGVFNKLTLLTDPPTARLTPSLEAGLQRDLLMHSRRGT
Assay: proximity ligation assay (in situ co-IP) in transfected hepatic cells, baseline (OA) and 1 h post-EPA
Method: The A18-C3 cells were cultured in DMEM (Invitrogen) supplemented with fetal bovine serum (20%), penicillin (50 U/mL), streptomycin (50 μg/mL, Invitrogen) and Geneticin/G418 (500 μg/mL, Gibco) at 37° C. in 5% CO₂. Transfection was conducted when cells were 60-70% confluence. Appropriate plasmids were mixed with FuGENE HP extreme reagent (Roche Diagnostic), according to manufacturer's protocol, and incubated for 30 min. […] In silencing experiments, appropriate siRNAs were transfected into cells using the X-treme GENE siRNA regent (Roche Diagnostic).
One h post-EPA treatment, the cells were fixed, permeabilized and incubated with an anti-RFP antibody together with proper anti-Vps11, -Vps39, and -Vps41 antibodies. The proximity ligation was achieved using the Duolink secondary PLA probes (Olink AB) that detects substrate formation between the two antibodies as described previously³⁸.

B1: mCherry-tagged Arl8b^T34N (other)
chain: MLALISRLLDWFRSLFWKEEMELTLVGLQYSGKNTFVNVIASGQFSEDMIPTVGFNMRKVTKGNVTIKIWDIGGQPRFRSMWERYCRGVNAIVYMIDAADREKIEASRNELHNLLDKPQLQGIPVLVLGNKRDLPNALDEKQLIEKMNLSAIQDREICCYSISCKEKDNIDITLQWLIQHSKSRRS
notes: Fusion protein expressed by plasmid transfection inside McA-RH7777 (A18-C3) hepatic cells and detected in situ with an anti-RFP antibody; also called ^mCherryArl8b^T34N; RFP-tagged Arl8b^T34N; not shown: C-terminal mCherry tag and its RDP linker
  binding result: no binding

Source: patent US20190125827A1 (UNIVERSITY OF OTTAWA, published 2019)
